Experimental data taken from patent publication US20220259593A1, “CONTROL OF MAMMALIAN GENE DOSAGE USING CRISPR” (The Regents of the University of California, priority 2019, published 2022).
Where a chain is given by its changes, count along the chain named.

B1: cr305 (nucleic acid)
guide: GTTTAAGAGCTAAGCTGGAAACAGCATAGCAAGGTTAAATAAGGCTAGTCCGTTATCAACTTGAAAAAGTGGCCCCGAGTCGGGGCT
modifications: listed as DNA, chemistry not fully specified
B2: cr987 (nucleic acid)
guide: B1 guide with G34T, T49G, A65T, C74A, G84T
modifications: listed as DNA, chemistry not fully specified
B3: cr462 (nucleic acid)
guide: B1 guide with G33A, G34A, C74A, G84T
modifications: listed as DNA, chemistry not fully specified
B4: cr963 (nucleic acid)
guide: B1 guide with G34T, G43C, C51G, C74G, C76T, G82A, G84C
modifications: listed as DNA, chemistry not fully specified
B5: cr562 (nucleic acid)
guide: B1 guide with A31G, G33C, G34T, A65G, C74A, G84T
modifications: listed as DNA, chemistry not fully specified
B6: cr507 (nucleic acid)
guide: B1 guide with G34T, G43T, C51A, C74A, C76A, G82T, G84T
modifications: listed as DNA, chemistry not fully specified
B7: cr382 (nucleic acid)
guide: B1 guide with G43C, C51G, C74A, G84T
modifications: listed as DNA, chemistry not fully specified
B8: cr413 (nucleic acid)
guide: B1 guide with G33C, G34T, C74A, C75A, G83T, G84T
modifications: listed as DNA, chemistry not fully specified
B9: cr504 (nucleic acid)
guide: B1 guide with T62G, A67C, C74A, G84T
modifications: listed as DNA, chemistry not fully specified
B10: cr042 (nucleic acid)
guide: B1 guide with T3G, T4G, G34T, C74A, G84T
modifications: listed as DNA, chemistry not fully specified
B11: cr954 (nucleic acid)
guide: B1 guide with C60A, G69T, C74A, G84T
modifications: listed as DNA, chemistry not fully specified
B12: cr310 (nucleic acid)
guide: B1 guide with G34T, A41T, A66T, C74A, G84T
modifications: listed as DNA, chemistry not fully specified
B13: cr384 (nucleic acid)
guide: B1 guide with G34T, G43A, G44T, C50A, C51T, C74A, G84T
modifications: listed as DNA, chemistry not fully specified
B14: cr834 (nucleic acid)
guide: B1 guide with A65G, C74A, G84T
modifications: listed as DNA, chemistry not fully specified
B15: cr316 (nucleic acid)
guide: B1 guide with G34T, G43T, C51A, C74A, G77A, C81T, G84T
modifications: listed as DNA, chemistry not fully specified
B16: cr157 (nucleic acid)
guide: B1 guide with G33C, G34T, C74A, C75T, G83A, G84T
modifications: listed as DNA, chemistry not fully specified
B17: cr519 (nucleic acid)
guide: B1 guide with C74G, G84C
modifications: listed as DNA, chemistry not fully specified
B18: cr731 (nucleic acid)
guide: B1 guide with C73T, C74A, G84T, G85A
modifications: listed as DNA, chemistry not fully specified
B19: cr031 (nucleic acid)
guide: B1 guide with T3A, T4A, G34T, C74A, G84T
modifications: listed as DNA, chemistry not fully specified
B20: cr324 (nucleic acid)
guide: B1 guide with G34T, G43C, C51G, T61C, A68G, C74A, G84T
modifications: listed as DNA, chemistry not fully specified
B21: cr191 (nucleic acid)
guide: B1 guide with G33C, G34T, C74A, C75G, G83C, G84T
modifications: listed as DNA, chemistry not fully specified
B22: cr841 (nucleic acid)
guide: B1 guide with A59C, T70G, C74A, G84T
modifications: listed as DNA, chemistry not fully specified
B23: cr170 (nucleic acid)
guide: B1 guide with G72A, C74A, G84T, C86T
modifications: listed as DNA, chemistry not fully specified
B24: cr964 (nucleic acid)
guide: B1 guide with A31T, G34T, A65G, C74A, G84T
modifications: listed as DNA, chemistry not fully specified
B25: cr424 (nucleic acid)
guide: B1 guide with G34T, G43C, C51G, C74G, C75T, G83A, G84C
modifications: listed as DNA, chemistry not fully specified
B26: cr448 (nucleic acid)
guide: B1 guide with G33C, G34T, G44C, C50G, C74A, G84T
modifications: listed as DNA, chemistry not fully specified
B27: cr951 (nucleic acid)
guide: B1 guide with G34T, A65G, C74T, G84A
modifications: listed as DNA, chemistry not fully specified
B28: cr041 (nucleic acid)
guide: B1 guide with T2C, A5C, G34T, C74A, G84T
modifications: listed as DNA, chemistry not fully specified
B29: cr389 (nucleic acid)
guide: B1 guide with G34T, G43A, G44A, C50T, C51T, C74A, G84T
modifications: listed as DNA, chemistry not fully specified
B30: cr336 (nucleic acid)
guide: B1 guide with G34T, C45G, G48C, C60A, G69T, C74A, G77C, C81G, G84T
modifications: listed as DNA, chemistry not fully specified
B31: cr773 (nucleic acid)
guide: B1 guide with A47T, A64G, C74A, G84T
modifications: listed as DNA, chemistry not fully specified
B32: cr248 (nucleic acid)
guide: B1 guide with G34T, G43C, C51G, C74A, G84T
modifications: listed as DNA, chemistry not fully specified
B33: cr541 (nucleic acid)
guide: B1 guide with G34T, G43A, C45G, G48C, C51T, C73T, C74A, G84T, G85A
modifications: listed as DNA, chemistry not fully specified
B34: cr261 (nucleic acid)
guide: B1 guide with T53G, C74A, G84T
modifications: listed as DNA, chemistry not fully specified
B35: cr028 (nucleic acid)
guide: B1 guide with T3C, T4C, G34T, C74A, G84T
modifications: listed as DNA, chemistry not fully specified
B36: cr186 (nucleic acid)
guide: B1 guide with C60G, G69C, C74A, G84T
modifications: listed as DNA, chemistry not fully specified
B37: cr418 (nucleic acid)
guide: B1 guide with T61A, A68T, C74A, G84T
modifications: listed as DNA, chemistry not fully specified
B38: cr628 (nucleic acid)
guide: B1 guide with G34T, C73T, C74A, G77A, C81T, G84T, G85A
modifications: listed as DNA, chemistry not fully specified
B39: cr214 (nucleic acid)
guide: B1 guide with G34T, A65G, C74A, C75A, G83T, G84T
modifications: listed as DNA, chemistry not fully specified
B40: cr864 (nucleic acid)
guide: B1 guide with G29A, G34T, A41T, C74A, G84T
modifications: listed as DNA, chemistry not fully specified
B41: cr263 (nucleic acid)
guide: B1 guide with G34T, A66C, C74A, G84T
modifications: listed as DNA, chemistry not fully specified

Tested on: K562 CRISPRi cells
Experiment: Constant region variant library pooled growth screen, K562
Format: cell-based, human
Method in brief: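 Library of sgRNA constant-region variants, each paired with 36 targeting sequences (essential-gene and non-targeting), transduced in duplicate into K562 CRISPRi cells, puromycin-selected and grown 4–8 days at >2000× coverage. Activity per variant is its growth phenotype normalised to the same targeting sequence with unmodified constant region.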

[1] = sgRNA constant region variant, activity relative to unmodified constant region cr995, mean CRISPRi activity
[2] = sgRNA constant region variants, activity relative to the original, un-modified constant region cr995

Row | Molecule | Mean relative activity [1] | Mean relative activity [2]
1 | B1 | 0.02073 | 
2 | B2 | 0.01815 | 
3 | B3 | 0.01488 | 
4 | B4 | 0.01551 | 
5 | B5 | 0.01393 | 
6 | B6 | 0.01954 | 
7 | B7 | 0.01715 | 
8 | B8 | 0.01427 | 
9 | B9 | 0.01685 | 
10 | B10 | 0.0164 | 
11 | B11 | 0.01751 | 
12 | B12 | 0.01363 | 
13 | B13 | 0.01438 | 
14 | B14 | 0.01861 | 
15 | B15 | 0.01422 | 
16 | B16 | 0.01383 | 
17 | B17 | 0.01933 | 
18 | B18 | 0.01505 | 
19 | B19 | 0.01677 | 
20 | B20 | 0.01711 | 
21 | B21 | 0.01358 | 

Row | Molecule | Mean relative activity [1] | Mean relative activity [2]
22 | B22 | 0.01636 | 
23 | B23 | 0.01501 | 
24 | B24 |  | 1.033
25 | B25 | 0.01319 | 
26 | B26 | 0.01746 | 
27 | B27 |  | 1.034
28 | B28 | 0.01415 | 
29 | B29 | 0.01944 | 
30 | B30 | 0.01616 | 
31 | B31 | 0.01327 | 
32 | B32 | 0.01369 | 
33 | B33 | 0.01856 | 
34 | B34 | 0.01441 | 
35 | B35 | 0.01375 | 
36 | B36 | 0.0199 | 
37 | B37 | 0.02069 | 
38 | B38 |  | 1.033
39 | B39 |  | 1.033
40 | B40 | 0.01678 | 
41 | B41 |  | 1.033
